Assay results reported in patent US20260146107A1 (ALLIGATOR BIOSCIENCE, published 2026).

T1: human CEACAM5, recombinant (R&D Systems #4128-CM-050) (human, UniProt P06731 35-685)
T1 construct: Bought; coated in ELISA and used as monomeric analyte in Octet; also called hCEACAM-5; Human CEACAM5-His; not shown: His tag
T1 sequence (looked up): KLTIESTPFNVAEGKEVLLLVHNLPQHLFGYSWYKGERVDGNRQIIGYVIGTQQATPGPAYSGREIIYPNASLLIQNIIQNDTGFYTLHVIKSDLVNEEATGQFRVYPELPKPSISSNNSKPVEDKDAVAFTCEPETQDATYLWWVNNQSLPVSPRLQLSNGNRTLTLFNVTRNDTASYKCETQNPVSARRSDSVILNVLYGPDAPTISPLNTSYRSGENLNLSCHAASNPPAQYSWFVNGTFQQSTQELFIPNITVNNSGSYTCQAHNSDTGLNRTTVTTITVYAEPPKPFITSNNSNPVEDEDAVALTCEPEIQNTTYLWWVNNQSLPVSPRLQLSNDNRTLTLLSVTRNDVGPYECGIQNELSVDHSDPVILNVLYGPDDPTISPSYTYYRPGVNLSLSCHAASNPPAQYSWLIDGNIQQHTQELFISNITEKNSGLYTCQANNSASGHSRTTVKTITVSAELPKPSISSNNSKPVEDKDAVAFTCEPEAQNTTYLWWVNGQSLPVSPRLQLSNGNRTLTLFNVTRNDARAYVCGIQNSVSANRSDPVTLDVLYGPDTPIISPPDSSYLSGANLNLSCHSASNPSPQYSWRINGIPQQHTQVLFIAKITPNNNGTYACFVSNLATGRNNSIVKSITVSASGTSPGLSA

T2: biotinylated human CEACAM5-His (Acro Biosystems #CE5-H82E0) (human, UniProt P06731 35-685, biotinylated (site not stated))
T2 construct: also called CEACAM5-biotin; captured human CEACAM5-biotin; not shown: His tag
T2 sequence (looked up): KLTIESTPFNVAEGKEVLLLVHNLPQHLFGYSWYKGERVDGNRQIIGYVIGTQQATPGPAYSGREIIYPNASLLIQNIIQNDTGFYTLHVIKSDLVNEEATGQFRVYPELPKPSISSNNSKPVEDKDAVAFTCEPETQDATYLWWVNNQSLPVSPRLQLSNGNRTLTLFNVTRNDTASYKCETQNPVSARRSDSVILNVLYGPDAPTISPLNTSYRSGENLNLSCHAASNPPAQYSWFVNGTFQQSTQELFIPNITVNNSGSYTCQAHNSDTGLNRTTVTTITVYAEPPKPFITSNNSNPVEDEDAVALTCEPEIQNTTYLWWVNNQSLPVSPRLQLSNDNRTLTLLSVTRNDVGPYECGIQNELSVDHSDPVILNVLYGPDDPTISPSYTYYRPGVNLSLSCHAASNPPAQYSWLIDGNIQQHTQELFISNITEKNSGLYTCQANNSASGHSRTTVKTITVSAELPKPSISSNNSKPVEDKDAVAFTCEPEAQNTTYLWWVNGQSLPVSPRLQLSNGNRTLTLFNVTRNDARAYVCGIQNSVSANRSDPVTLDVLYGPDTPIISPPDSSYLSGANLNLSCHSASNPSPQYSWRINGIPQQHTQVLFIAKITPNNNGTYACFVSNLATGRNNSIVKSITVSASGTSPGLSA


How the values were obtained:
[1] = biological target: human CD40 expressed on cells (CD40 reporter cells, HEK Blue CD40L cells, primary B cells, tumour APCs) (human, UniProt P25942 21-277); assay: cell-based or functional assay
Sequence of human CD40 expressed on cells (CD40 reporter cells, HEK Blue CD40L cells, primary B cells, tumour APCs) (P25942 21-277): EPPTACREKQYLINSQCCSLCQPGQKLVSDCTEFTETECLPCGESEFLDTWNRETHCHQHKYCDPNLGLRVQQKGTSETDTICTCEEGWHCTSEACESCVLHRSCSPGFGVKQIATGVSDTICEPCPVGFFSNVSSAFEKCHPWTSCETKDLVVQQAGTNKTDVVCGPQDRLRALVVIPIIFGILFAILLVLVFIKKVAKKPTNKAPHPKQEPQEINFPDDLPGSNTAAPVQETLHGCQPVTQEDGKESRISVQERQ

[2] = biological target: T1, human CEACAM5, recombinant (R&D Systems …); assay: Octet BLI, captured bsAb, soluble antigen, 1:1 fit
Method: (§1) Kinetic measurements were performed in the Octet RED96 platform using several different setups. […] Monomeric human CD40-His-Avi tag (Acro Biosystems #CD0-H5228), monomeric Human CEACAM5-His (R&D Systems #4128-CM-050) or monomeric Cynomolgus CEACAM5-His (Sino Biological #90891-C08H) were ½ serially diluted in 1× kinetic buffer (Sartorius) starting at 500 nM or 100 nM. […] Binding kinetics was studied in 1× kinetic buffer where association was allowed for 100 sec, 300 sec or 600 sec followed by dissociation for 100 sec, 300 sec or 3600 sec. Sensor tips were regenerated with 10 mM Glycine pH 1.7. Data generated were referenced by subtracting blank or parallel buffer blank, the baseline was aligned to the y-axis, inter-step correction by alignment against dissociation was performed and the data was smoothed by Savitzky-Golay filter in the data analysis software (v9.0.0.14). The processed data was fitted using a 1:1 Langmuir binding model with R² or X² as a measurement of fitting accuracy.
Association was measured for 100 sec and dissociation for 300 sec.

[3] = biological target: T1, human CEACAM5, recombinant (R&D Systems …); assay: Octet BLI, captured bsAb, monomeric CEACAM5 in solution, 1:1 fit
Method: as §1
Association was measured for 100 sec and dissociation was measured for 100 sec.

[4] = biological target: T1, human CEACAM5, recombinant (R&D Systems …); assay: dual-target ELISA: hCEACAM-5 coated, bsAb titrated, detected with biotinylated hCD40-muIg and streptavidin-HRP, luminescence; signal needs both targets bound
Method: (§2) 96-well plates were coated with 0.5 μg/mL antigen, hCEACAM-1 (2244-CM-050, R&D Systems), hCEACAM-5 (4128-CM-050, R&D Systems), hCEACAM-6 (3934-CM-050, R&D Systems) or CEACAM-8 (9639-CM-050, R&D Systems) in PBS over night at 4° C. After washing in PBS/0.05% Tween 20 (PBST), the plates were blocked with PBST, 2% BSA for at least 30 minutes at room temperature before a second round of washing. RUBY bsAbs, diluted in PBST, 0.5% BSA, were then added and allowed to bind for at least 1 hour at room temperature. […] Finally, a final round of washing was performed and bound complexes detected using SuperSignal Pico Luminescent as substrate and luminescence signals were measured using Fluostar Optima.

[5] = biological target: T2, biotinylated human CEACAM5-His (Acro …); assay: Octet BLI, captured CEACAM5-biotin, bsAb in solution, 1:1 fit
Method: as §1
Association was measured for 100 sec and dissociation measured for 100 sec.

[6] = biological target: T1, human CEACAM5, recombinant (R&D Systems …); assay: ELISA, antigen coated at 0.5 µg/mL, bsAb titrated, anti-human kappa-HRP, luminescence
Method: as §2

EC50 of SEAP release, HEK Blue CD40L reporter cells, bsAb crosslinked to CHO-CEACAM5 cells, 0 Raji sink cells/well [1] [nM]	EC50 of SEAP release, same assay, 10 000 Raji sink cells/well [1] [nM]	EC50 of SEAP release, same assay, 30 000 Raji sink cells/well [1] [nM]	EC50 of SEAP release, same assay, 90 000 Raji sink cells/well [1] [nM]	Kd [2] [nM]	koff [2] [s⁻¹]	kon [2] [M⁻¹ s⁻¹]	Kd [3] [nM]	koff [3] [s⁻¹]	kon [3] [M⁻¹ s⁻¹]	EC50 (read off the curve) [4] [nM]	Kd [5] [nM]	koff [5] [s⁻¹]	kon [5] [M⁻¹ s⁻¹]	EC50 (read off the curve) [6] [nM]	Binder
0.03	0.05	0.08	0.23	< 0.001	< 1e-07	520000	1.8	0.00042	240000	~0.3	–	–	–	–	AC_05339 (bispecific antibody, RUBY format, CEACAM5xCD40; also called AC_5339) heavy 1: not shown light: DIQMTQSPSSLSASVGDRVTITCRASQSISSYLNWYQEKPGKAPKLLIYAASSLQSGVPSRFSGSGSGTDFTLTISSLQPEDFATYYCQQAGNPHTFGQGTKLEIKRTVAAPSVFIFPPSDEQLKSGTASVVCYLNNFYPREAKVQWKVDNALQSGNSQESVTEQDSKDSTYSLWSTLTLSKADYEKHKVYACEVTHQGLSSPVTKSFNRGEC heavy 2: EVQLLESGGGLVQPGGSLRLSCAASGFTFSTYGMHWVREAPGKGLEWLSYISGGSSYIFYADSVRGRFTISRDNSENALYLQMNSLRAEDTAVYYCARILRGGSGMDLWGQGTLVTVSSASTKGPSVFPLAPSSKSTSGGTAALGCLVKDYFPEPVTVSWNSGALTSGVHTFPAVLQSSGLYSLSSVVEVPSSSLGTQTYICNVNHKPSNTKVDKKVEPKSC
0.02	0.05	0.08	0.16	–	–	–	13	0.0023	180000	~0.8	< 0.001	< 1e-07	150000	~0.5	Multi44 (bispecific antibody, Optimised RUBY format, CEACAM5xCD40) heavy 1: not shown light: DIQMTQSPSSLSASVGDRVTITCRASQSISSYLNWYQEKPGKAPKLLIYAASSLQSGVPSRFSGSGSGTDFTLTISSLQPEDFATYYCQQWGYLLTFGQGTKLEIKRTVAAPSVFIFPPSDEQLKSGTASVVCYLNNFYPREAKVQWKVDNALQSGNSQESVTEQDSKDSTYSLWSTLTLSKADYEKHKVYACEVTHQGLSSPVTKSFNRGEC heavy 2: EVQLLESGGGLVQPGGSLRLSCAASGFTFSTYGMHWVREAPGKGLEWLSYISGGSSYIFYADSVKGRFTISRDNSKNTLYLQMNSLRAEDTAVYYCARILRGGSGMDLWGQGTLVTVSSASTKGPSVFPLAPSSKSTSGGTAALGCLVKDYFPEPVTVSWNSGALTSGVHTFPAVLQSSGLYSLTSVVEVPSSSLGTQTYICNVNHKPSNTKVDKKVEPKSC
–	–	–	–	–	–	–	< 0.001	< 1e-07	24000	–	–	–	–	~3	Multi48 (bispecific antibody, Optimised RUBY format, CD40xCEACAM5) heavy 1: not shown light: DIQMTQSPSSLSASVGDRVTITCRASQSISSYLNWYQEKPGKAPKLLIYAASSLQSGVPSRFSGSGSGTDFTLTISSLQPEDFATYYCQQYGRNPPTFGQGTKLEIKRTVAAPSVFIFPPSDEQLKSGTASVVCYLNNFYPREAKVQWKVDNALQSGNSQESVTEQDSKDSTYSLWSTLTLSKADYEKHKVYACEVTHQGLSSPVTKSFNRGEC heavy 2: EVQLLESGGGLVQPGGSLRLSCAASGFTFGDHAMSWVREAPGKGLEWVSAISGYGHSTGYADSVKGRFTISRDNSKNTLYLQMNSLRAEDTAVYYCARNHYRVGLDYWGQGTLVTVSSASTKGPSVFPLAPSSKSTSGGTAALGCLVKDYFPEPVTVSWNSGALTSGVHTFPAVLQSSGLYSLTSVVEVPSSSLGTQTYICNVNHKPSNTKVDKKVEPKSC
–	–	–	–	–	–	–	–	–	–	–	–	–	–	~2	Multi38 (bispecific antibody, Optimised RUBY format, CD40xCEACAM5 (Fab8); also called Muli38) heavy 1: not shown light: not shown heavy 2: EVQLLESGGGLVQPGGSLRLSCAASGFTFGDHAMSWVREAPGKGLEWVSAISGYGHSTGYADSVKGRFTISRDNSKNTLYLQMNSLRAEDTAVYYCARNHYRVGLDYWGQGTLVTVSSASTKGPSVFPLAPSSKSTSGGTAALGCLVKDYFPEPVTVSWNSGALTSGVHTFPAVLQSSGLYSLTSVVEVPSSSLGTQTYICNVNHKPSNTKVDKKVEPKSC
–	–	–	–	–	–	–	< 0.001	< 1e-07	28000	–	–	–	–	~3	Multi49 (bispecific antibody, Optimised RUBY format, CD40xCEACAM5) heavy 1: not shown light: DIQMTQSPSSLSASVGDRVTITCRASQSISSYLNWYQEKPGKAPKLLIYAASSLQSGVPSRFSGSGSGTDFTLTISSLQPEDFATYYCQQYGRNPPTFGQGTKLEIKRTVAAPSVFIFPPSDEQLKSGTASVVCYLNNFYPREAKVQWKVDNALQSGNSQESVTEQDSKDSTYSLWSTLTLSKADYEKHKVYACEVTHQGLSSPVTKSFNRGEC heavy 2: EVQLLESGGGLVQPGGSLRLSCAASGFTFYDHAMSWVREAPGKGLEWVSAISGSYGSTGYADSVKGRFTISRDNSKNTLYLQMNSLRAEDTAVYYCARWGGWAGDIDYWGQGTLVTVSSASTKGPSVFPLAPSSKSTSGGTAALGCLVKDYFPEPVTVSWNSGALTSGVHTFPAVLQSSGLYSLTSVVEVPSSSLGTQTYICNVNHKPSNTKVDKKVEPKSC
